Consider 18 molecules from patent US20050154189A1 (MAXYGEN, published 2005).

B1: Round 2 CTLA4BP 2x3-h2 (ligand)
chain: VIHVTKEVKEVATLSCGHNVSVEELAQTRIYWQKEKKMVLTMMSGDMNIWPEYKNRTIFDITNNLSIVILALRPSDEGTYECVVLKYEKDAFKREHLAEVMLSVKADFPTPSISDFEIPPSNIRRIICSTPGGFPEPRLAWMEDGEELNAISTTVSQDPGTELYAVSSKLDFNMTTNHSFMCLIKYGHLRVNQTFNWNTTKQEHFPDNLLPSWAITLISVKGIFVICCLTYCFAPRWRERKSNERLRRESVRPV
B2: Round 1 CTLA4BP-7 (ligand)
chain: VIHVTNEVKEVATLSCGHNVSGEELAQTRIYWQKEKKMVLTMMYGDMNIWPEYKNRTIFDITNNLSIVILALRPSDEGTYECVVLKYEKDAFKREHLAEVMLSVKADFPTPSITDFEIPPSNIRRIICLTSGGFPEPRLAWMKDGEELNAISTTVSQDPGTELYAVSSKLDFNMTTNHSFMCLIKYGHLRVNQTFSWNTPKQEHFPDNLLPSWAITLISVNGIFVICCLTYCFAPRCRERRRNERLRRESVRPV
notes: also called R1-7; R1 CTLA-4BP-7
B3: Round 2 CTLA4 A-B4-6 (ligand)
chain: ITPKSVTKRVKETVMLSCDYNTSTEELTSLRIYWQKDSKMVLAILPGKVQVWPEYKNRTITDMNDNPRIVILALRLSDKGTYTCVVQKNENGSFRREHLTSVTLSIRADFPVPTINDLGNPSPNIRRLICSTSGGFPRPHLYWLENGEELNATNTTLSQDPETKLYMISSELDFNMTSNHSFLCLVKYGDLTVSQTFYWQESKPTPSANQHLTWTIIIPVSAFGISVIIAVILTCLTCRNAAIRRQRRENEVEMQSCSQSP
B4: Round 2 CTLA4 A-F1-6 (ligand)
chain: ITPKSVTKRVKETVMLSCDYSTSTEELTSLRIYWQKDSKMVLAILPGKVQVWPEYKNRTITDMNDNPRIVILALRLSDKGTYTCVVQKNENGSFRREHLTSVRLMIRADFPVPTINDLGNPSPNIRRLICSTSGGFPRPHLYWLENGEELNATNTTLSQDPETKLYMISSELDFNMTSNHSFLCLVKYGDLTVSQTFYWQESKPTPSANQHLTWTIIIPVSAFGISVIIAVILTCLTCRNAAIRRQRRENEVEMQSCSQSP
B5: Round 2 CTLA4 A-F10-1 (ligand)
chain: ITPKSVTKRVKETVMLSCDYNTSTEELTSLRIYWQKDSKMVLAILPGKVQVWPEYKNRTITDMNDNPRIVILALRLSDKGTYTCVVQKNENGSFRREHLTSVTLSIRADFPVPTINDLGNPSPNIRRLICSTSGGFPRPHLYWLENGEELNATNTTLSQDPETKLYMISSELDFNMTSNHSFLCLVKYGDLTVSQTLYWQESKPTPSANQHLTWTIIIPVSAFGISVIIAVILTCLTCRNAAIRRQRRENEVEMQSCSQSP
B6: Round 2 CTLA4 A-E2-6 (ligand)
chain: ITPKSVTKRVKETVMLSCDYNTSTEELTSLRIYWQKDSKMVLAILPGKVQVWPEYKNRTITDMNDNPRIVILALRLSDSGTYTCVVQKNENGSFRREHLTSVRLMIRADFPVPTINDLGNPSPNIRRLICSTSGGFPRPHLYWLENGEELNATNTTLPQDPETKLYMISSELDFNMTSNHSFLCLVKYGDLTVSQTFYWQESKPTPSANQHLTWTIIIPVSAFGISVIIAVILTCLTCRNAAIRRQRRENEVEMQSCSQSP
B7: Round 2 CTLA4 A-H3-6 (ligand)
chain: GISQVTKSVKEMAALSCDYNISIDELARMRIYWQKDQQMVLSIISGQVEVWPEYKNRTFPDIINNLSLMILALRLSDKGTYTCVVQKNENGSFRREHLTSVTLSIRADFPVPSINDLGNPSPNIRRLICSTSGGFPRPHLYWLENGEELNATNTTLSQDPETKLYMISSELDFNMTSNHSFLCLVKYGDLTVSQTFYWQESKPTPSANQHLTWTIIIPVSAFGISVIIAVILTCLTCRNAAIRRQRRENEVEMQSCSQSP
B8: Round 2 CTLA4 A-H4-5* (ligand)
chain: ITPKSVTKRVKETVMLSCDYSTSTEELTSLRIYWQKDSKMVLAILPGKVQVWPEYKNRTITDMNDNPRIVILALRLSDKGTYTCVVQKNENGSFRREHLTSVTLSIRADFPVPSITDIGHPAPNVKRIRCSASGGFPEPRLYWLENGEELNATNTTVSQDPGTELYMISSELDFNVTNNHSIVCLIKYGELSVSQIFPWSKPKQEPPIDQLPFWVIIPVSGALVLTAVVLYCLACRHVARWKRTRRNEETVGTERLSPIYLGSAQSSG
B9: Round 2 CTLA4BP-5x2-11d (ligand)
chain: VIHVTKEVKEVATLSCGHNVSVEELAQTRIHWQKEKKMVLTMMSGDMNIWPEYKNRTIFDITNNLSIVILALRPSDEGTYECVVLKYEKDAFKREHLAEVMLSVKADFPTPSITDFEIPPSNIRRIICSTSGGFPEPHLFWLENGEELNAINTTVSQDPETELYTVSSKLDFNMTTDRSFVCLIKYGHLRVNQTFNWNTPKQEHFPDNLLPSWAITLISANGIFVICCLTYCFAPRCRERKSNETLRRESVRPV
B10: Round 2 CTLA4BP-5x2-10c (ligand)
chain: VIHVTKEVKEVATLSCGHNVSVEELAQTRIHWQKEKKMVLTMMSGDMNIWPEYKNRTIFDITNNLSIVILALRPSDEGTYECVVLKYEKDAFKREHLAEVMLSVKADFPTPSITDFEIPPSNIRRIICSTSGGFPEPHLSWLENGEELNAINTTVSQDPETELYTVSSKLDFNMTANHSFVCLIKYGHLRVNQTFNWNTPKQEHFPDNLLPSWAITLISVNGIFVICCLTYCFAPRCRERRNETLRRESVRPV
B11: Round 2 CTLA4 A-C9-9 (ligand)
chain: SGITPKSVTKRVKETVMLSCDYSTSTEELTSLRIYWQKDSKMVLAILPGKVQVWPEYKNRTFPDIINNLSLMILALRLSDRGTYTCVVQKNENGSFRREHLTSVTLSIRADFPVPSITDIGHPAPNVKRIRCSASGGFPEPRLAWMEDGEELNAVNTTVDQDLDTELYSVGSELDFNVTNNHSIVCLIKYGELSVSQIFPWSKPKQEPPIDQLPFWVIIPVSGALVLTAVVLYCLARRHVARWKRTRRNEETVGTERLSPIYLGSAQSSG
B12: Round 1 CD28BP-126 (ligand)
chain: ITPKSVTKRVKETVMLSCDYSTSTEELTSLRIYWQKDSKMVLAILPGKVQVWPEYKNRTITDMNDNPRIVILALRLSDSGTYTCVIQKPDLKGAYKLEHLTSVRLMIRADFPVPTINDLGNPSPNIRRLICSTSGGFPRPHLYWLENGEELNATNTTVSQDPGTELYMISSELDFNVTNNHSIVCLIKYGELSVSQIFPWSKPKQEPPIDQLPFWVIIPVSGALVLTAVVLYCLACRHVARWKRTRRNEETVGTERLSPIYLGSAQSSG
notes: also called R1clone 126; Clone 126
B13: Round 2 CD28A4-5* (ligand)
chain: ITPKSVTKRVKETVMLSCDYNTSTEELTSLRIYWQKDSKMVLAILPGKVQVWPEYKNRTITDMNDNPRIVILALRLSDSGTYTCVIQKPVLKGAYKLEHLTSVRLMIRADFPVPTINDLGNPSPNIRRLICSTSGGFPRPHLYWLENGEELNATNTTLSQDPETKLYMISSELDFNVTNNHSIVCLIKYGELSVSQIFPWSKPKQEPPIDQLPFWVIIPVSGALVLTAVVLYCLACRHVARWKRTRRNEETVGTERLSPIYLGSAQSSG
B14: Round 2 CD28B2-8 (ligand)
chain: ITPKSVTKRVKETVMLSCDYNTSTEELTSLRIYWQKDSKMVLAILPGKVQVWPEYKNRTITDMNDNPRIVILALRLSDKGTYTCVIQKPVLKGAYKLEHLASVRLMIRADFPVPTINDLGNPSPNIRRLICSTSGGFPRPHLYWLENGEELNATNTTVSQDPGTELYMISSELDFNVTNNHSIVCLIKYGELSVSQIFPWSKPKQEPPIDQLPFWVIIPVSGALVLTAVVLYCLACRHVARWKRTRRNEETVGTERLSPIYLGSAQSSG
B15: Round 2 CD28A6-1 (ligand)
chain: ITPKSVTKRVKETVMLSCDYNTSTEELTSLRIYWQKDSKMVLAILPGKVQVWPEYKNRTITDMNDNPRIVILALRLSDSGTYTCVIQKPVLKGAYKLEHLASVRLMIRADFPVPTINDLGNPSPNIRRLICSTSGGFPRPHLYWLENGEELNATNTTVSQDPETKLYMISSELDFNVTNNHSIVCLIKYGELSVSQIFPWSKPKQEPPIDQLPFRVIIPVSGALVLTAIVLYCLACRHVARWKRTRRNEETVGTERLSPIYLGSAQSSG
B16: Round 2 CD28A8-4 (ligand)
chain: ITPKSVTKRVKETVMLSCDYNTSTEELTSLRIYWQKDSKMVLAILPGKVQVWPEYKNRTITDMNDNPRIVILALRLSDSGTYTCVIQKPVLKGAYKLEHLTSVRLMIRADFPVPTINDLGNPSPNIRRLICSTSGGFPRPHLYWLENGEELNATNTTVSQDPGTELYMISSELDFNVTNNHSIVCLIKYGELSVSQIFPWSKPKQEPPIDQLPFWVIIPVSGALVLTAVVLYCLACRHVARWKRTRRNEETVGTERLSPIYLGSAQSSG
B17: Round 2 CD28BP-2 (ligand)
chain: ITPKSVTKRVKETVMLSCDYSTSTEELTSLRIYWQKDSKMVLAILPGKVQVWPEYKNRTITDMNDNPRIVILALRLSDSGTYTCVIQKPVLKGAYKLEHLASVRLMIRADFPVPTINDLGNPSPNIRRLICSTSGGFPRPHLYWLENGEELNATNTTLSQDPETKLYMISSELDFNVTNNHSIVCLIKYGELSVSQIFPWSKPKQEPPIDQLPFWVIIPVSGALVLTAVVLYRPACRHVARWKRTRRNEETVGTERLSPIYLGSAQSSG
B18: Round 2 CD28A6-9 (ligand)
chain: ITPKSVTKRVKETVMLSCDYNTSTEELTSLRIYWQKDSKMVLAILPGKVQVWPEYKNRTITDMNDNPRIVILALRLSDSGTYTCVIQKPVLKGAYKLEHLASVRLMIRADFPVPTINDLGNPSPNIRRLICSTSGGFPRPHLYWLENGEELNATNTTVSQDPGTELYMISSELDFNVTNNHSIVCLIKYGELSVSQIFPWSKPKQEPPIDQLPFLVIIPVSGALVLTAVVLYCLACRHVARWKRTRRNEETVGTERLSPIYLGSAQSSG

The target of the first test is T1, Soluble CTLA-4-Ig (human, UniProt P16410 36-161, FITC-conjugated in the two-colour FACS assays; unlabelled and detected with FITC goat anti-human IgG in the concentration-dependent assay).
T1 construct: extracellular domain; Bought from R&D Systems; also called sCTLA-4-Ig; CTLA-4-Ig Fc; not shown: Fc portion of human IgG1
T1 sequence (P16410 36-161): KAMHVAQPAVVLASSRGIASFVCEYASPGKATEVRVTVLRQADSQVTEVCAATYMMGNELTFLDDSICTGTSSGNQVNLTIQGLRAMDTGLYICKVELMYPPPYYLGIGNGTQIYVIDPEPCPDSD
As to the kind of experiment: two-colour FACS profile on transfected cells; score of preference for CTLA-4-Ig over CD28-Ig vs WT hB7-1.
As for B1, the “Binding Score” value is 0.

As to B2, the “Binding Score” value was found to be 1. Still for that read-out and setting: to B3 belongs 1; to B4, 1; to B5, 1.

As for B6, the “Binding Score” value came to 1. Same read-out and setting: to B7 belongs 1. Same read-out and setting: to B8 belongs 1. Take B9: the “Binding Score” value came to 2.

For the molecule B10, the “Binding Score” value stood at 2. Still for that read-out and setting: for B11 the value was 0.

For another test, the target named is T2, Soluble CD28-Ig (human, UniProt P10747 19-152, biotin-conjugated (NHS-biotin) in the labelled-ligand FACS assays).
T2 construct: extracellular domain; Bought from R&D Systems; also called sCD28-Ig; CD28-Ig Fc; not shown: Fc portion of human IgG1
Nature of the test: two-colour FACS profile on transfected cells; score of preference for CD28-Ig over CTLA-4-Ig vs WT hB7-1.
B12: the “Binding Score” value was determined as 1.

Regarding B13, the “Binding Score” value worked out at 1. For the molecule B14, the “Binding Score” value worked out at 1. The same measure, in the same setting: to B15 belongs 1. For B16, the “Binding Score” value turned out to be 1. Still for that read-out and setting: to B17 belongs 2; to B18, 1.
